# Results taken from US20220096649A1.
# B1: Hum1/AB21_HC_Mutall (antibody, V domains shown)
# VH: EVQLVESGGGVVQPGGSLRLSCAASGFTFSSNAMSWVRQAPGKGLEWVAGISAGGSDTYYPASVKGRFTISRDNSKNTLYLQMNSLRAEDTAVYYCARETWNHLFDYWGQGTLVTVSS
# VL: SYELTQPPSVSVSPGQTARITCSGGSYSSYYYAWYQQKPGQAPVTLIYSDDKRPSNIPERFSGSSSGTTVTLTISGVQAEDEADYYCGGYDQSSYTNPFGGGTKLTVL
# B2: Hum8/AB21_HC_Mutall (antibody, V domains shown)
# VH: EVQLVESGGGVVQPGGSLRLSCAASGFTFSSNAMSWVRQAPGKGLEWVAGISAGGSDTYYPASVKGRFTISRDNSKNTLYLQMNSLRAEDTAVYYCARETWNHLFDYWGQGTLVTVSS
# VL: SYELTQPPSVSVSPGQTARITCSGGAYSSYYYAWYQQKPGQAPVLVIYSDSKRPSGIPERFSGSSSGTTVTLTISGVQAEDEADYYCGGYDQSSYTNPFGGGTKLTVL
# B3: Hum9/AB21_HC_Mutall (antibody, V domains shown)
# VH: EVQLVESGGGVVQPGGSLRLSCAASGFTFSSNAMSWVRQAPGKGLEWVAGISAGGSDTYYPASVKGRFTISRDNSKNTLYLQMNSLRAEDTAVYYCARETWNHLFDYWGQGTLVTVSS
# VL: SYELTQPPSVSVSPGQTARITCSGGAYSSYYYAWYQQKPGQAPVLVIYSDDKRPSGIPERFSGSSSGTTVTLTISGVQAEDEADYYCGGYDQSSYTNPFGGGTKLTVL
# B4: Anti-SIRP-α antibody 119, light chain wt, heavy chain wt (antibody, V domains shown)
# VH: EVQLLESGGGVVQPGGSLRLSCAASGFSFSNFAMTWVRQAPGEGLEWVSTIGSGDTYYADSVKGRFTISRDNSKNTLYLQMNSLRAEDTAVYYCAKDSTVSWSGDFFDYWGLGTLVTVSS
# VL: EIVLTQSPATLSVSPGERATFSCRASQNVKNDLAWYQQRPGQAPRLLIYAARIRETGIPERFSGSGSGTEFTLTITSLQSEDFAVYYCQQYYDWPPFTFGGGTKVEIK
# B5: Anti-SIRP-α antibody 119, light chain wt, heavy chain Mut (antibody, V domains shown)
# VH: EVQLLESGGGVVQPGGSLRLSCAASGFSFSNFAVTWVRQAPGKGLEWVSTIGSGDTYYADSVKGRFTISRDNSKNTLYLQMNSLRAEDTAVYYCAKDSTVSWSGDFFDYWGQGTLVTVSS
# VL: EIVLTQSPATLSVSPGERATFSCRASQNVKNDLAWYQQRPGQAPRLLIYAARIRETGIPERFSGSGSGTEFTLTITSLQSEDFAVYYCQQYYDWPPFTFGGGTKVEIK
# B6: Anti-SIRP-α antibody 135, light chain Mut, heavy chain Mut (antibody, V domains shown)
# VH: EVQLVESGGGVVQPGGSLRLSCAASGFSFSIYAVSWVRQAPGKGLEWVSTIGADDTYYADSVKGRFTISRDNSKNTLYLQMNSLRAEDTAVYYCAKDSTVGWSGDFFDYWGQGTLVTVSS
# VL: EIVLTQSPATLSVSPGERVTLSCRASQNVRSDIAWYQQKPGQAPRLLIYAASSRDTGIPARFSGSGSGTDFTLTISSLQSEDFGVYYCQQYYDWPPFTFGGGTKVEIK
# B7: Anti-SIRP-α antibody 135, light chain wt, heavy chain Mut_V34M (antibody, V domains shown)
# VH: EVQLVESGGGVVQPGGSLRLSCAASGFSFSIYAMSWVRQAPGKGLEWVSTIGADDTYYADSVKGRFTISRDNSKNTLYLQMNSLRAEDTAVYYCAKDSTVGWSGDFFDYWGQGTLVTVSS
# VL: EIVLTQSPATLSVSPGERVTFSCRASQNVRSDIAWYQQKPGQAPRLLIYAASSRDTGIPDRFSGSGSGTDFTLTISSLQSEDFGVYYCQQYYDWPPFTFGGGTKVEIK
# B8: Anti-SIRP-α antibody 119, light chain Mut, heavy chain Mut (antibody, V domains shown)
# VH: EVQLLESGGGVVQPGGSLRLSCAASGFSFSNFAVTWVRQAPGKGLEWVSTIGSGDTYYADSVKGRFTISRDNSKNTLYLQMNSLRAEDTAVYYCAKDSTVSWSGDFFDYWGQGTLVTVSS
# VL: EIVLTQSPATLSVSPGERATLSCRASQNVKNDLAWYQQKPGQAPRLLIYAARIRETGIPARFSGSGSGTEFTLTISSLQSEDFAVYYCQQYYDWPPFTFGGGTKVEIK
# B9: Anti-SIRP-α antibody 119, light chain Mut, heavy chain Mut_V34M (antibody, V domains shown)
# VH: EVQLLESGGGVVQPGGSLRLSCAASGFSFSNFAMTWVRQAPGKGLEWVSTIGSGDTYYADSVKGRFTISRDNSKNTLYLQMNSLRAEDTAVYYCAKDSTVSWSGDFFDYWGQGTLVTVSS
# VL: EIVLTQSPATLSVSPGERATLSCRASQNVKNDLAWYQQKPGQAPRLLIYAARIRETGIPARFSGSGSGTEFTLTISSLQSEDFAVYYCQQYYDWPPFTFGGGTKVEIK
# B10: Anti-SIRP-α antibody 135, light chain wt, heavy chain Mut (antibody, V domains shown)
# VH: EVQLVESGGGVVQPGGSLRLSCAASGFSFSIYAVSWVRQAPGKGLEWVSTIGADDTYYADSVKGRFTISRDNSKNTLYLQMNSLRAEDTAVYYCAKDSTVGWSGDFFDYWGQGTLVTVSS
# VL: EIVLTQSPATLSVSPGERVTFSCRASQNVRSDIAWYQQKPGQAPRLLIYAASSRDTGIPDRFSGSGSGTDFTLTISSLQSEDFGVYYCQQYYDWPPFTFGGGTKVEIK
# B11: Anti-SIRP-α antibody 135, light chain wt, heavy chain wt (antibody, V domains shown)
# VH: DVQLVESGGGVVRPGESLRLSCAASGFSFSIYAMSWVRQAPGEGLEWVSTIGADDTYYADSVKGRFTISRDNSKNTLYLQMNSLRAEDTAVYYCAKDSTVGWSGDFFDYWGLGTLVTVSS
# VL: EIVLTQSPATLSVSPGERVTFSCRASQNVRSDIAWYQQKPGQAPRLLIYAASSRDTGIPDRFSGSGSGTDFTLTISSLQSEDFGVYYCQQYYDWPPFTFGGGTKVEIK
# B12: Anti-SIRP-α antibody 119, light chain Mut, heavy chain wt (antibody, V domains shown)
# VH: EVQLLESGGGVVQPGGSLRLSCAASGFSFSNFAMTWVRQAPGEGLEWVSTIGSGDTYYADSVKGRFTISRDNSKNTLYLQMNSLRAEDTAVYYCAKDSTVSWSGDFFDYWGLGTLVTVSS
# VL: EIVLTQSPATLSVSPGERATLSCRASQNVKNDLAWYQQKPGQAPRLLIYAARIRETGIPARFSGSGSGTEFTLTISSLQSEDFAVYYCQQYYDWPPFTFGGGTKVEIK
# B13: Anti-SIRP-α antibody 135, light chain Mut, heavy chain wt (antibody, V domains shown)
# VH: DVQLVESGGGVVRPGESLRLSCAASGFSFSIYAMSWVRQAPGEGLEWVSTIGADDTYYADSVKGRFTISRDNSKNTLYLQMNSLRAEDTAVYYCAKDSTVGWSGDFFDYWGLGTLVTVSS
# VL: EIVLTQSPATLSVSPGERVTLSCRASQNVRSDIAWYQQKPGQAPRLLIYAASSRDTGIPARFSGSGSGTDFTLTISSLQSEDFGVYYCQQYYDWPPFTFGGGTKVEIK
# B14: Anti-SIRP-α antibody 136, light chain Mut_Q38E, heavy chain Mut (antibody, V domains shown)
# VH: EVQLVESGGGVVQPGRSLRLSCAASGFTFSSYDVNWVRQAPGKGLEWVSLISGSGEIIYYADSVKGRFTISRDNSKNTLYLQMNSLRAEDTAVYYCAKENNRYRFFDDWGQGTLVTVSS
# VL: EIVLTQSPGTLSLSPGERATLSCRASQSVYTYLAWYQEKPGQAPRLLIYGASSRATGIPDRFSGSGSGTEFTLTISSLQSEDFAVYYCQQYYDRPPLTFGGGTKVEIK
# B15: Anti-SIRP-α antibody 136, light chain Mut_S12T, heavy chain Mut (antibody, V domains shown)
# VH: EVQLVESGGGVVQPGRSLRLSCAASGFTFSSYDVNWVRQAPGKGLEWVSLISGSGEIIYYADSVKGRFTISRDNSKNTLYLQMNSLRAEDTAVYYCAKENNRYRFFDDWGQGTLVTVSS
# VL: EIVLTQSPGTLTLSPGERATLSCRASQSVYTYLAWYQQKPGQAPRLLIYGASSRATGIPDRFSGSGSGTEFTLTISSLQSEDFAVYYCQQYYDRPPLTFGGGTKVEIK
# B16: Anti-SIRP-α antibody 136, light chain Mut_S22T, heavy chain Mut (antibody, V domains shown)
# VH: EVQLVESGGGVVQPGRSLRLSCAASGFTFSSYDVNWVRQAPGKGLEWVSLISGSGEIIYYADSVKGRFTISRDNSKNTLYLQMNSLRAEDTAVYYCAKENNRYRFFDDWGQGTLVTVSS
# VL: EIVLTQSPGTLSLSPGERATLTCRASQSVYTYLAWYQQKPGQAPRLLIYGASSRATGIPDRFSGSGSGTEFTLTISSLQSEDFAVYYCQQYYDRPPLTFGGGTKVEIK
# B17: Anti-SIRP-α antibody 136, light chain Mut_I2T, heavy chain Mut (antibody, V domains shown)
# VH: EVQLVESGGGVVQPGRSLRLSCAASGFTFSSYDVNWVRQAPGKGLEWVSLISGSGEIIYYADSVKGRFTISRDNSKNTLYLQMNSLRAEDTAVYYCAKENNRYRFFDDWGQGTLVTVSS
# VL: ETVLTQSPGTLSLSPGERATLSCRASQSVYTYLAWYQQKPGQAPRLLIYGASSRATGIPDRFSGSGSGTEFTLTISSLQSEDFAVYYCQQYYDRPPLTFGGGTKVEIK
# B18: Anti-SIRP-α antibody 136, light chain Mut, heavy chain Mut (antibody, V domains shown)
# VH: EVQLVESGGGVVQPGRSLRLSCAASGFTFSSYDVNWVRQAPGKGLEWVSLISGSGEIIYYADSVKGRFTISRDNSKNTLYLQMNSLRAEDTAVYYCAKENNRYRFFDDWGQGTLVTVSS
# VL: EIVLTQSPGTLSLSPGERATLSCRASQSVYTYLAWYQQKPGQAPRLLIYGASSRATGIPDRFSGSGSGTEFTLTISSLQSEDFAVYYCQQYYDRPPLTFGGGTKVEIK
# B19: Anti-SIRP-α antibody 136, light chain wt, heavy chain Mut (antibody, V domains shown)
# VH: EVQLVESGGGVVQPGRSLRLSCAASGFTFSSYDVNWVRQAPGKGLEWVSLISGSGEIIYYADSVKGRFTISRDNSKNTLYLQMNSLRAEDTAVYYCAKENNRYRFFDDWGQGTLVTVSS
# VL: ETVLTQSPGTLTLSPGERATLTCRASQSVYTYLAWYQEKPGQAPRLLIYGASSRATGIPDRFSGSGSGTEFTLTISSLQSEDFAVYYCQQYYDRPPLTFGGGTKVEIK
# B20: Anti-SIRP-α antibody 136, light chain Mut_I2T, heavy chain Mut_V34M (antibody, V domains shown)
# VH: EVQLVESGGGVVQPGRSLRLSCAASGFTFSSYDMNWVRQAPGKGLEWVSLISGSGEIIYYADSVKGRFTISRDNSKNTLYLQMNSLRAEDTAVYYCAKENNRYRFFDDWGQGTLVTVSS
# VL: ETVLTQSPGTLSLSPGERATLSCRASQSVYTYLAWYQQKPGQAPRLLIYGASSRATGIPDRFSGSGSGTEFTLTISSLQSEDFAVYYCQQYYDRPPLTFGGGTKVEIK
# Columns and labels:
# [1] = molecular target: SIRP-α mouse NOD (mouse (NOD)) (UniProt P97797); assay: SPR, antibody on GLC chip, SIRP as analyte
# [2] = molecular target: SIRP-α mouse BALBc (mouse (BALBc)) (UniProt P97797); assay: SPR, antibody on GLC chip, SIRP as analyte
# SIRP-α human v1 (human) = SIRP-α human v1 (human) (UniProt P78324); assay: SPR, antibody on GLC chip, SIRP as analyte
# [3] = molecular target: SIRP-α mouse BALBc (mouse (BALBc)) (UniProt P97797); assay: SPR, antibody on GLC chip, SIRP as analyte; Mouse BALBc SIRP-α allele
# [4] = molecular target: SIRP-α mouse NOD (mouse (NOD)) (UniProt P97797); assay: SPR, antibody on GLC chip, SIRP as analyte; Mouse NOD SIRP-α allele
# SIRP-α human v1 (human), sequence (P78324 31-149): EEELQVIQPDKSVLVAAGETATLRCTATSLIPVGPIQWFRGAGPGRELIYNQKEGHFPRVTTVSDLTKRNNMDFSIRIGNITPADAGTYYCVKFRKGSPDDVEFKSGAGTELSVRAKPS
binder,measurement,setting,value
B1,Kd,[1],3.7 nM
same,Kd,[2],7.9 nM
same,Kd,SIRP-α human v1 (human),0.0053 nM
B2,Kd,[3],71 nM
same,Kd,SIRP-α human v1 (human),0.02 nM
same,Kd,[4],28 nM
B3,Kd,[3],140 nM
same,Kd,SIRP-α human v1 (human),0.012 nM
same,Kd,[4],24 nM
B4,Kd,SIRP-α human v1 (human),0.18 nM
B5,Kd,SIRP-α human v1 (human),0.25 nM
B6,Kd,SIRP-α human v1 (human),0.19 nM
B7,Kd,SIRP-α human v1 (human),0.15 nM
B8,Kd,SIRP-α human v1 (human),0.32 nM
B9,Kd,SIRP-α human v1 (human),0.22 nM
B10,Kd,SIRP-α human v1 (human),0.18 nM
B11,Kd,SIRP-α human v1 (human),0.15 nM
B12,Kd,SIRP-α human v1 (human),0.21 nM
B13,Kd,SIRP-α human v1 (human),0.15 nM
B14,Kd,[1],6 nM
same,Kd,[2],3 nM
same,Kd,SIRP-α human v1 (human),6.2 nM
B15,Kd,[1],2.9 nM
same,Kd,[2],2.1 nM
same,Kd,SIRP-α human v1 (human),4.9 nM
B16,Kd,[1],2.4 nM
same,Kd,[2],1.6 nM
same,Kd,SIRP-α human v1 (human),5 nM
B17,Kd,[1],0.68 nM
same,Kd,[2],0.42 nM
same,Kd,SIRP-α human v1 (human),0.72 nM
B18,Kd,[1],5.2 nM
same,Kd,[2],3.1 nM
same,Kd,SIRP-α human v1 (human),7.3 nM
B19,Kd,[1],0.68 nM
same,Kd,[2],0.42 nM
same,Kd,SIRP-α human v1 (human),0.56 nM
B20,Kd,[1],0.6 nM
same,Kd,[2],0.36 nM
same,Kd,SIRP-α human v1 (human),0.55 nM
